In the supplement of paper PMC7877785:
± gives the uncertainty stated by the source.

Assay: self-splicing fitness, log relative to wild type (ln ratio); higher = more splicing; Tetrahymena group I intron in knt gene, E. coli kanamycin selection, DiMSum; sequences stand for … in CUCUCU…GGAGGGAAAAGUUAUCAGGCAUGCACCUGGUAGCUAGUCUUUAAACCAAUAGAUUGCAUCGGUUUAAAAGGCAAGACCGUCAAAUUGCGGGAAAGGGGUCAACAGCCGUUCAGUACCAAGUCUCAGGGGAAACUUUGAGAUGGCCUUGCAAAGGGUAUGGUAAUAAGCUGACGGACAUGGUCCUAACCACGCAGCCAAGUCCUAAGUCAACAGAUCUUCUGUUGAUAUGGAUGCAGUUCACAGACUAAAUGUCGGUCGGGGAAGAUGUAUUCUUCUCAUAAGAUAUAGUCGGACCUCUCCUUAAUGGGAGCUAGCGGAUGAAGUGAUGCAACACUGGAGCCGCUGGGAACUAAUUUGUAUGCGAAAGUAUAUUGAUUAGUUUUGGAGUACUCGUGGUCG
Outline: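 Colonies from six replicate transformations of E. coli BL21(DE3) were pooled and amplicon-sequenced on an Illumina HiSeq 2500. The library placed an intron with all eight P1ex-region nucleotides randomised inside the knt kanamycin-resistance gene on pET-22b(+), and cells grew overnight at 37°C or 30°C on LB agar with or without 25 μg/mL kanamycin (plus 100 μg/mL carbenicillin, 50 μM IPTG, 0.2% rhamnose). Fitness is the DiMSum error-weighted combination of wild-type-normalised replicate fold changes, kanamycin versus none.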

| Sequence | self-splicing fitness (ln) (30 °C) | self-splicing fitness (ln) (37 °C) |
| --- | --- | --- |
| GCACAGCAAUAUUACGUAAU | 0.164 ± 0.059 | -0.0143 ± 0.064 |
| GGUGAGCAAUAUUACGAGCA | -0.652 ± 0.23 | -1.1 ± 0.29 |
| CUGCAGCAAUAUUACGAGCA | -3.11 ± 0.21 | -2.38 ± 0.22 |
| GAGGAGCAAUAUUACGUUGG | – | -1.46 ± 0.42 |
| UCAGAGCAAUAUUACGCAGG | – | 0.137 ± 0.42 |
| ACUCAGCAAUAUUACGCCAA | -1.12 ± 0.17 | -2.5 ± 0.21 |
| ACUGAGCAAUAUUACGGAAU | -3.39 ± 0.35 | -1.87 ± 0.23 |
| GACAAGCAAUAUUACGUGCG | -1.16 ± 0.068 | -0.532 ± 0.081 |
| ACUCAGCAAUAUUACGUGGC | -3.04 ± 0.14 | -2.9 ± 0.17 |
| GUUGAGCAAUAUUACGCAUU | -2.68 ± 0.2 | -2.45 ± 0.33 |
| AAGAAGCAAUAUUACGAAGG | -3.33 ± 0.38 | -2.01 ± 0.36 |
| AGCAAGCAAUAUUACGUACC | -0.796 ± 0.078 | 0.398 ± 0.097 |
| CGUCAGCAAUAUUACGGCGA | -1.88 ± 0.17 | -1.57 ± 0.21 |
| GGUAAGCAAUAUUACGACAG | -2.56 ± 0.29 | -1.99 ± 0.44 |
| GUGUAGCAAUAUUACGUAGC | -3.09 ± 0.23 | -1.41 ± 0.28 |
| GCCCAGCAAUAUUACGGCUC | -0.866 ± 0.11 | -0.219 ± 0.14 |
| GAAGAGCAAUAUUACGUUAG | -2.19 ± 0.3 | -2.59 ± 0.31 |
| UAAAAGCAAUAUUACGUUUC | -3.32 ± 0.14 | -2.36 ± 0.19 |
| GAUUAGCAAUAUUACGUUAG | -2.09 ± 0.32 | -2.4 ± 0.45 |
| AUGUAGCAAUAUUACGGAUU | -1.57 ± 0.092 | -0.598 ± 0.091 |
| AAUUAGCAAUAUUACGAUGC | -1.25 ± 0.15 | -0.872 ± 0.18 |
| GCAUAGCAAUAUUACGAUAU | -1.9 ± 0.084 | 0.148 ± 0.09 |
| UUCUAGCAAUAUUACGGAUA | -1.44 ± 0.17 | -0.551 ± 0.15 |
| GUGCAGCAAUAUUACGCAUC | – | -3.79 ± 0.37 |
| GAACAGCAAUAUUACGCAGU | -3.37 ± 0.11 | -2.5 ± 0.13 |

| Sequence | self-splicing fitness (ln) (30 °C) | self-splicing fitness (ln) (37 °C) |
| --- | --- | --- |
| AACUAGCAAUAUUACGUAAC | 0.169 ± 0.15 | -1.5 ± 0.3 |
| UAGAAGCAAUAUUACGACCG | -0.345 ± 0.18 | -0.138 ± 0.25 |
| CCCUAGCAAUAUUACGGUAU | -3.5 ± 0.14 | -2.13 ± 0.14 |
| AUCCAGCAAUAUUACGCAAC | -2.21 ± 0.13 | -0.741 ± 0.12 |
| GCCCAGCAAUAUUACGCCAU | -2.56 ± 0.22 | -3.35 ± 0.37 |
| CCUCAGCAAUAUUACGGAAA | -3.7 ± 0.23 | -1.63 ± 0.17 |
| CGUUAGCAAUAUUACGAUUC | -3.09 ± 0.19 | -1.68 ± 0.18 |
| GUCCAGCAAUAUUACGCCAA | -2.63 ± 0.18 | -2.72 ± 0.16 |
| UAUGAGCAAUAUUACGAUAG | -2.31 ± 0.35 | -0.767 ± 0.38 |
| GUGCAGCAAUAUUACGCGGC | -1.7 ± 0.14 | -2.51 ± 0.23 |
| CUGGAGCAAUAUUACGUUGU | -2.64 ± 0.29 | -3.72 ± 0.33 |
| ACGUAGCAAUAUUACGCCUU | -1.42 ± 0.064 | -0.00228 ± 0.076 |
| ACCCAGCAAUAUUACGAUUA | -1.61 ± 0.09 | -1.41 ± 0.082 |
| CACUAGCAAUAUUACGCUUC | -3.74 ± 0.3 | -3.2 ± 0.4 |
| GUAAAGCAAUAUUACGUGGA | -2.51 ± 0.095 | -1.38 ± 0.073 |
| CAACAGCAAUAUUACGCUGA | -3.74 ± 0.2 | -3.02 ± 0.2 |
| AUGUAGCAAUAUUACGAUGA | -0.624 ± 0.15 | -1.66 ± 0.15 |
| AGGGAGCAAUAUUACGCACU | -3.18 ± 0.4 | -0.0242 ± 0.24 |
| CUUCAGCAAUAUUACGUGUA | -3.11 ± 0.13 | -3.22 ± 0.21 |
| CCCUAGCAAUAUUACGAUGA | -3.24 ± 0.18 | -2.35 ± 0.2 |
| UGGGAGCAAUAUUACGCGCA | -1.66 ± 0.15 | -1.16 ± 0.19 |
| AUGCAGCAAUAUUACGAUAU | -1.04 ± 0.054 | 0.0687 ± 0.07 |
| GUAAAGCAAUAUUACGUACU | -1.01 ± 0.076 | -0.965 ± 0.13 |
| AUGCAGCAAUAUUACGGCGC | -0.143 ± 0.17 | 0.107 ± 0.18 |
| UAACAGCAAUAUUACGGCUA | 0.184 ± 0.052 | -0.0982 ± 0.067 |

| Sequence | self-splicing fitness (ln) (30 °C) | self-splicing fitness (ln) (37 °C) |
| --- | --- | --- |
| GAACAGCAAUAUUACGAGAC | -2.13 ± 0.22 | -1.21 ± 0.18 |
| GGACAGCAAUAUUACGAGUG | -3.32 ± 0.17 | -1.79 ± 0.15 |
| GCCGAGCAAUAUUACGUGCC | -3.35 ± 0.15 | -2.52 ± 0.2 |
| ACAUAGCAAUAUUACGGCUU | -0.628 ± 0.09 | 0.133 ± 0.11 |
| GCUCAGCAAUAUUACGAACA | -0.688 ± 0.088 | -0.676 ± 0.1 |
| GUGUAGCAAUAUUACGUGGU | -3.96 ± 0.27 | -1.17 ± 0.22 |
| UGUAAGCAAUAUUACGCGCG | -0.498 ± 0.11 | -0.329 ± 0.15 |
| AAGCAGCAAUAUUACGCCGC | – | -2.37 ± 0.45 |
| AUGGAGCAAUAUUACGGAAG | -3.24 ± 0.38 | – |
| UCCAAGCAAUAUUACGAAGC | -2.87 ± 0.25 | -1.93 ± 0.21 |
| GAUUAGCAAUAUUACGUUGG | -4.17 ± 0.27 | -2.16 ± 0.18 |
| CCGAAGCAAUAUUACGUGCG | -1.04 ± 0.085 | -0.542 ± 0.096 |
| GUGUAGCAAUAUUACGGAUA | -2.46 ± 0.23 | -0.0303 ± 0.17 |
| ACCGAGCAAUAUUACGAAAG | -3.42 ± 0.37 | -1.68 ± 0.17 |
| UGAGAGCAAUAUUACGAUGA | – | -2.48 ± 0.3 |
| AGACAGCAAUAUUACGUUGU | -3.02 ± 0.13 | -2.21 ± 0.12 |
| UGCUAGCAAUAUUACGUCCA | -0.211 ± 0.06 | -0.404 ± 0.09 |
| GCAUAGCAAUAUUACGUAUA | -3.23 ± 0.29 | -1.52 ± 0.24 |
| CCAGAGCAAUAUUACGAUGU | -3.69 ± 0.23 | -1.83 ± 0.17 |
| CUACAGCAAUAUUACGCAGU | -3.78 ± 0.24 | -2.32 ± 0.22 |
| UGGGAGCAAUAUUACGGCGU | – | -0.706 ± 0.28 |
| UGUAAGCAAUAUUACGGGUC | -3.01 ± 0.41 | – |
| CUGAAGCAAUAUUACGCCCU | -3.03 ± 0.22 | -2.86 ± 0.47 |
| AGGAAGCAAUAUUACGACCU | -2.74 ± 0.22 | -2.29 ± 0.21 |
| CUCGAGCAAUAUUACGAAAA | -1.93 ± 0.44 | – |

| Sequence | self-splicing fitness (ln) (30 °C) | self-splicing fitness (ln) (37 °C) |
| --- | --- | --- |
| GGCCAGCAAUAUUACGCACA | -0.344 ± 0.16 | -0.177 ± 0.17 |
| GGCAAGCAAUAUUACGUUUC | -0.714 ± 0.1 | -0.0706 ± 0.14 |
| GGCCAGCAAUAUUACGUGUA | -2.41 ± 0.083 | -1.51 ± 0.1 |
| UUCGAGCAAUAUUACGCACC | -3.33 ± 0.29 | -1.91 ± 0.24 |
| AGAGAGCAAUAUUACGCGAA | -3.26 ± 0.37 | -2.82 ± 0.34 |
| UAGGAGCAAUAUUACGGGUU | -4.52 ± 0.42 | -2.56 ± 0.27 |
| AACGAGCAAUAUUACGGCAA | -1.49 ± 0.27 | -1.9 ± 0.24 |
| CCUAAGCAAUAUUACGGGUC | -4.66 ± 0.36 | -3.25 ± 0.22 |
| CUUCAGCAAUAUUACGGCAU | -2.78 ± 0.17 | -2.1 ± 0.2 |
| GACAAGCAAUAUUACGGUCC | -3.13 ± 0.2 | -1.83 ± 0.29 |
| GUUAAGCAAUAUUACGUGCU | -1.6 ± 0.087 | -0.714 ± 0.11 |
| AGUGAGCAAUAUUACGCAGG | – | -2.65 ± 0.48 |
| GCCGAGCAAUAUUACGACUC | -3.37 ± 0.48 | 0.198 ± 0.28 |
| AUACAGCAAUAUUACGCUAU | -3.03 ± 0.11 | -1.29 ± 0.087 |
| GUAGAGCAAUAUUACGGAUC | -0.404 ± 0.1 | -0.0325 ± 0.14 |
| UCAGAGCAAUAUUACGGAGG | -3.4 ± 0.27 | -2.33 ± 0.34 |
| AGCUAGCAAUAUUACGCUGC | -3.59 ± 0.48 | – |
| CAGUAGCAAUAUUACGCUGU | -2.72 ± 0.17 | -2.99 ± 0.28 |
| GGUUAGCAAUAUUACGCAAA | -1.62 ± 0.39 | -2.21 ± 0.31 |
| GUUCAGCAAUAUUACGAGGG | -2.72 ± 0.19 | -0.563 ± 0.16 |
| AGUGAGCAAUAUUACGAUCA | -1.64 ± 0.13 | -0.675 ± 0.16 |
| CUUCAGCAAUAUUACGUACU | -4.13 ± 0.19 | -2.8 ± 0.19 |
| CUAAAGCAAUAUUACGAUUG | -0.545 ± 0.053 | -0.596 ± 0.06 |
